Results reported in patent US7119185.

B1: Hunk (hormonally up-regulated, neu-tumor-associated kinase), murine, 714-amino-acid ~80-kDa polypeptide (protein)
chain: MPAAAGDGLLGEPAAPGGDGGAEDTTRPAAACEGSFLPAWVSGVSRERLRDFQHHKRVGNYLIGSRKLGEGSFAKVREGLHVLTGEKVAIKVIDKKRAKKDTYVTKNLRREGQIQQMIRHPNITQLLDILETENSYYLVMELCPGGNLMHKIYEKKRLDEAEARRYIRQLISAVEHLHRAGVVHRDLKIENLLLDEDNNIKLIDFGLSNCAGILGYSDPFSTQCGSPAYAAPELLARKKYGPKIDVWSIGVNMYAMLTGTLPFTVEPFSLRALYQKMVDKAMNPLPTQLSTGAVNFLRSLLEPDPVKRPNIQQALANRWLNENYTGKVPCNVTYPNRISLEDLSPSVVLHMTEKLGYKNSDVINTVLSNRACHILAIYFLLNKKLERYLSGKSDIQDSICYKTQLYQIEKCRATKEPYEASLDTWTRDFEFHAVQDKKPKEQEKRGDFLHRPFSKKLDKNLPSHKQPSPSLITQLQSTKALLKDRKASKSGFPDKDSFVCRNLFRKTSDSNCVASSSMEFIPVPPPRTPRIVKKLEPHQPGPGSASILPKEEPLLLDMVRSFESVDREDHIELLSPSHHYRILSSPVSLARRNSSERTLSQGLLSGSTSPLQTPLHSTLVSFAHEEKNSPPKEEGVCSPPPVPSNGLLQPLGSPNCVKSRGRFPMMGIGQMLRKRHQSLQPSSERSLDASMSPLQPIAPSSLSFDMADGVKGQC
With B1 the “in vitro kinase assay of Hunk immunoprecipitates with [gamma-32P]ATP” value (histone H1) was “Hunk immunoprecipitates were able to phosphorylate both histone H1 and MBP in vitro”, the “in vitro kinase assay of anti-Hunk (C-terminal antisera) immunoprecipitates from lactating mammary glands” value (histone H1) was “Hunk-associated kinase activity was substantially greater in immunoprecipitates prepared from transgenic when compared with wild type mammary glands” and the “in vitro kinase assay of Hunk immunoprecipitates with [gamma-32P]ATP” value (myelin basic protein) was “Hunk immunoprecipitates were able to phosphorylate both histone H1 and MBP in vitro”.
